The results in this text go back to article PMC2605266.

The target in assay [1] is T1, GST fused to the cytosolic domain of VAMP4 (human).
T1 sequence (O75379 whole entry, looked up): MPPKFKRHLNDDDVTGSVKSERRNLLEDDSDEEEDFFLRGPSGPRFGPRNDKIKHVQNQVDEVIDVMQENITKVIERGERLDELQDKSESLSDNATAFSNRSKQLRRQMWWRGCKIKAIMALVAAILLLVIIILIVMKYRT
Kind of assay: pull-down; 5 ug GST fusion protein immobilised on glutathione Sepharose, 5 ug His-tagged Munc18c in 500 ul, overnight at 4 C; binding buffer 150 mM potassium acetate, 1 mM MgCl2, 0.05% Tween 20, 20 mM HEPES pH 7.4; bound Munc18c detected by immunoblot. (In general: In western blotting, separated proteins are transferred to a membrane and probed.)

The target in assay [2] is T2, GST fused to the cytosolic domain of VAMP8 (human).
T2 sequence (Q9BV40 whole entry, looked up): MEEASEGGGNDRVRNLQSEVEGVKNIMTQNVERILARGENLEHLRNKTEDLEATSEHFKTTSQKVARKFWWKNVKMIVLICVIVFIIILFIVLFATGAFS
The assay is described as above.

B1: Munc18c, N-terminal His6-fusion protein (natural protein)
chain: MAPPVSERGLKSVVWRKIKTAVFDDCRKEGEWKIMLLDEFTTKLLSSCCKMTDLLEEGITVIENIYKNREPVRQMKALYFISPTPKSVDCFLRDFGSKSEKKYKAAYIYFTDFCPDSLFNKIKASCSKSIRRCKEINISFIPQESQVYTLDVPDAFYYCYSPDPSNASRKEVVMEAMAEQIVTVCATLDENPGVRYKSKPLDNASKLAQLVEKKLEDYYKIDEKGLIKGKTQSQLLIIDRGFDPVSTVLHELTFQAMAYDLLPIENDTYKYKTDGKEKEAVLEEDDDLWVRVRHRHIAVVLEEIPKLMKEISSTKKATEGKTSLSALTQLMKKMPHFRKQISKQVVHLNLAEDCMNKFKLNIEKLCKTEQDLALGTDAEGQRVKDSMLVLLPVLLNKNHDNCDKIRAVLLYIFGINGTTEENLDRLIHNVKIEDDSDMIRNWSHLGVPIVPPSQQAKPLRKDRSAEETFQLSRWTPFIKDIMEDAIDNRLDSKEWPYCSRCPAVWNGSGAVSARQKPRTNYLELDRKNGSRLIIFVIGGITYSEMRCAYEVSQAHKSCEVIIGSTHILTPRKLLDDIKMLNKSKDKVSFKDE
Take B1: the binding as percent of that observed for VAMP2 in assay [1] and in assay [2] was below 14% in each case.
